Measurements from US20100260668A1 (published 2010).

Legend:
[1] = biological target: T1, DLL4 ECD/His tag (R&D 1506-D4-050) (UniProt Q9NR61 27-529); assay: direct bind ELISA, DLL4 on plate; DLL4 VD C-term.; HC Short, LC Long
T1 construct: extracellular domain; Bought antigen coated on the ELISA plate; not shown: His tag

[2] = biological target: recombinant human VEGF165 (human, UniProt P15692-4 27-191); assay: cell-based or functional assay
[3] = biological target: human DLL4 extracellular domain (human, UniProt Q9NR61 27-529); assay: cell-based or functional assay
[4] = biological target: T1, DLL4 ECD/His tag (R&D 1506-D4-050); assay: direct bind ELISA, DLL4 on plate; DLL4 VD C-term.; HC Long, LC Short

Sequence of recombinant human VEGF165 (P15692 other isoform, or with tags, fused parts or gaps limits assumed): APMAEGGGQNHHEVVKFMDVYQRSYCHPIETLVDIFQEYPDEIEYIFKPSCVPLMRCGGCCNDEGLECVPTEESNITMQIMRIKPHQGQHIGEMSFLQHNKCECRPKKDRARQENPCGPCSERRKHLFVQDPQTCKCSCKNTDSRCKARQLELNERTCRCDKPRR

B1: DVD530 (bispecific antibody, human IgG1, kappa, lambda, L234A L235A)
heavy: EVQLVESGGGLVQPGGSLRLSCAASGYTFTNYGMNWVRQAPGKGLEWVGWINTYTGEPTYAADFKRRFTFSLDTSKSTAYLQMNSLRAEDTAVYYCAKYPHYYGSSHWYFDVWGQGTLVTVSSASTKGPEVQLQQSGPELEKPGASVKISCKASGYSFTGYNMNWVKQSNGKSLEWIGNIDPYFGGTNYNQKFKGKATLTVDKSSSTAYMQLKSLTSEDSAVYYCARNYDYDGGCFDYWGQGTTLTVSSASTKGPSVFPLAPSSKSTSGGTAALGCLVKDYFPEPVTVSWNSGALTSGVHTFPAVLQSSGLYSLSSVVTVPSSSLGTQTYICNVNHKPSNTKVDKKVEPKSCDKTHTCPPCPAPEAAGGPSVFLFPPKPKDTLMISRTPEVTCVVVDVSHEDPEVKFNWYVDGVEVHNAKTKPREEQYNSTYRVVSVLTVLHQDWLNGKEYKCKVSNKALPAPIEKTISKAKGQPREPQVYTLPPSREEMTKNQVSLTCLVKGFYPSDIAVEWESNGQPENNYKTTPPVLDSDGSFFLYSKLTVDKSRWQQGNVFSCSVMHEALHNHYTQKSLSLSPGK
light: DIQMTQSPSSLSASVGDRVTITCSASQDISNYLNWYQQKPGKAPKVLIYFTSSLHSGVPSRFSGSGSGTDFTLTISSLQPEDFATYYCQQYSTVPWTFGQGTKVEIKRTVAAPSVFIFPPQAVVTQESALTTSPGETVTLTCRSSTGAVTTSNYANWVQEKPDHLFTGLIGGTNNRAPGVPARFSGSLIGDKAALTITGAQTEDEAIYFCALWYSNHWVFGGGTKLTVLGQPKAAPSVTLFPPSSEELQANKATLVCLISDFYPGAVTVAWKADSSPVKAGVETTTPSKQSNNKYAASSYLSLTPEQWKSHRSYSCQVTHEGSTVEKTVAPTECS
notes: DVD-Ig; HC short, LC long linker; also called DVD530H; DVD530L
- EC50 [1]: 220 pM

B2: DVD043 (bispecific antibody, human IgG1, kappa)
heavy: not shown
light: DIQMTQSPSSLSASVGDRVTITCSASQDISNYLNWYQQKPGKAPKVLIYFTSSLHSGVPSRFSGSGSGTDFTLTISSLQPEDFATYYCQQYSTVPWTFGQGTKVEIKRTVAAPDIQMTQSPSSLSASVGDRVTITCRASQDVSTAVAWYQQKPGKAPKLLIYSASFLYSGVPSRFSGSGSGTDFTLTISSLQPEDFATTYYCQQSYTGTVTFGQGTKVEIKRTVAAPSVFIFPPSDEQLKSGTASVVCLLNNFYPREAKVQWKVDNALQSGNSQESVTEQDSKDSTYSLSSTLTLSKADYEKHKVYACEVTHQGLSSPVTKSFNRGEC
- % inhibition of HUVEC proliferation at 0.67 nM [2]: -22%
- % inhibition of HUVEC proliferation at 6.7 nM [2]: 51%
- % inhibition of HUVEC proliferation at 67 nM [2]: 89%
- Soluble Flt1 Assay, % of Neutralization @ 9.2 nM Ab [3]: 1.1%
- Soluble Flt1 Assay, % of Neutralization @ 27.7 nM Ab [3]: 50.3%
- Soluble Flt1 Assay, % of Neutralization @ 83.3 nM Ab [3]: 57.9%

B3: DVD510 (bispecific antibody, human IgG1, kappa)
heavy: not shown
light: DIQMTQSPSSLSASVGDRVTITCRASQVIRRSLAWYQQKPGKAPKLLIYAASNLASGVPSRFSGSGSGTDFTLTISSLQPEDFATYYCQQSNTSPLTFGQGTKVEIKRTVAAPSVFIFPPDIQMTQSSSYLSVSLGGRVTITCKASDHINNWLAWYQQKPGNAPRLLISGATSLETGVPSRFSGSGSGKDYTLSITSLQTEDVATYYCQQYWSIPLTFGAGTKLELKRTVAAPSVFIFPPSDEQLKSGTASVVCLLNNFYPREAKVQWKVDNALQSGNSQESVTEQDSKDSTYSLSSTLTLSKADYEKHKVYACEVTHQGLSSPVTKSFNRGEC
notes: DVD-Ig; outer AB071 (VEGF), inner AB072 (DLL4); HC short, LC long linker; also called DVD510H; DVD510L
- EC50 [1]: 420 pM

B4: DVD534 (bispecific antibody, human IgG1, kappa, lambda, L234A L235A)
heavy: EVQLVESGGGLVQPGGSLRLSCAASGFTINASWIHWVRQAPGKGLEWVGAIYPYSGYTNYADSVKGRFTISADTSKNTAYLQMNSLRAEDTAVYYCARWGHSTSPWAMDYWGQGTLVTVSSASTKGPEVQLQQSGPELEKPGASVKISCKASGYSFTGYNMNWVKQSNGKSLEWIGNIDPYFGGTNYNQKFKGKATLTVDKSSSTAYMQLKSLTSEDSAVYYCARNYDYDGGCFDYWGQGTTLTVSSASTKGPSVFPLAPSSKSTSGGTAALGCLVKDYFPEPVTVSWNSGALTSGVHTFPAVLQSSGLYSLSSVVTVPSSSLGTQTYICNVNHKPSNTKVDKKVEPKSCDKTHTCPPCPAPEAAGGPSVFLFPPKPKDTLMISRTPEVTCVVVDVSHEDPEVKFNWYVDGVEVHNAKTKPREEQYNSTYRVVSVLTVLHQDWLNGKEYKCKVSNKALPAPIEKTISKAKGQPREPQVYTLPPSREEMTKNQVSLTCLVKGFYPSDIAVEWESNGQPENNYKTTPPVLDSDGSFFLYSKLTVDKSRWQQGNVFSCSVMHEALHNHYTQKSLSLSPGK
light: DIQMTQSPSSLSASVGDRVTITCRASQVIRRSLAWYQQKPGKAPKLLIYAASNLASGVPSRFSGSGSGTDFTLTISSLQPEDFATYYCQQSNTSPLTFGQGTKVEIKRTVAAPSVFIFPPQAVVTQESALTTSPGETVTLTCRSSTGAVTTSNYANWVQEKPDHLFTGLIGGTNNRAPGVPARFSGSLIGDKAALTITGAQTEDEAIYFCALWYSNHWVFGGGTKLTVLGQPKAAPSVTLFPPSSEELQANKATLVCLISDFYPGAVTVAWKADSSPVKAGVETTTPSKQSNNKYAASSYLSLTPEQWKSHRSYSCQVTHEGSTVEKTVAPTECS
notes: DVD-Ig; outer AB071 (VEGF), inner AB073 (DLL4); HC short, LC long linker; also called DVD534H; DVD534L
- EC50 [1]: 470 pM

B5: DVD482 (bispecific antibody, human IgG1, kappa)
heavy: not shown
light: DIQMTQSPSSLSASVGDRVTITCSASQDISNYLNWYQQKPGKAPKVLIYFTSSLHSGVPSRFSGSGSGTDFTLTISSLQPEDFATYYCQQYSTVPWTFGQGTKVEIKRTVAAPSVFIFPPDIQMTQSPSSLSASVGDRVTITCRASQDVSTAVAWYQQKPGKAPKLLIYSASFLYSGVPSRFSGSGSGTDFTLTISSLQPEDFATTYYCQQSYTGTVTFGQGTKVEIKRTVAAPSVFIFPPSDEQLKSGTASVVCLLNNFYPREAKVQWKVDNALQSGNSQESVTEQDSKDSTYSLSSTLTLSKADYEKHKVYACEVTHQGLSSPVTKSFNRGEC
notes: DVD-Ig; HC short, LC long linker; also called DVD482H; DVD482L
- EC50 [1]: 360 pM

B6: DVD464 (bispecific antibody, human IgG1, kappa)
heavy: not shown
light: DIQMTQSPSSLSASVGDRVTITCRASQVIRRSLAWYQQKPGKAPKLLIYAASNLASGVPSRFSGSGSGTDFTLTISSLQPEDFATYYCQQSNTSPLTFGQGTKVEIKRTVAAPSVFIFPPDIVMTQSPDSLAVSLGERATISCRASESVDNYGISFMKWFQQKPGQPPKLLIYAASNQGSGVPDRFSGSGSGTDFTLTISSLQAEDVAVYYCQQSKEVPWTFGGGTKVEIKRTVAAPSVFIFPPSDEQLKSGTASVVCLLNNFYPREAKVQWKVDNALQSGNSQESVTEQDSKDSTYSLSSTLTLSKADYEKHKVYACEVTHQGLSSPVTKSFNRGEC
notes: DVD-Ig; outer AB071 (VEGF), inner AB069 (DLL4); HC short, LC long linker; also called DVD464H; DVD464L
- EC50 [1]: 800 pM

B7: DVD486 (bispecific antibody, human IgG1, kappa)
heavy: not shown
light: DIQMTQSPSSLSASVGDRVTITCRASQVIRRSLAWYQQKPGKAPKLLIYAASNLASGVPSRFSGSGSGTDFTLTISSLQPEDFATYYCQQSNTSPLTFGQGTKVEIKRTVAAPSVFIFPPDIQMTQSPSSLSASVGDRVTITCRASQDVSTAVAWYQQKPGKAPKLLIYSASFLYSGVPSRFSGSGSGTDFTLTISSLQPEDFATTYYCQQSYTGTVTFGQGTKVEIKRTVAAPSVFIFPPSDEQLKSGTASVVCLLNNFYPREAKVQWKVDNALQSGNSQESVTEQDSKDSTYSLSSTLTLSKADYEKHKVYACEVTHQGLSSPVTKSFNRGEC
notes: DVD-Ig; outer AB071 (VEGF), inner AB015 (DLL4); HC short, LC long linker; also called DVD486H; DVD486L
- EC50 [1]: 590 pM

B8: DVD504 (bispecific antibody, human IgG1, kappa)
heavy: not shown
light: DIQMTQSPSSLSASVGDRVTITCRASQVIRRSLAWYQQKPGKAPKLLIYAASNLASGVPSRFSGSGSGTDFTLTISSLQPEDFATYYCQQSNTSPLTFGQGTKVEIKRTVAAPDIQMTQSSSYLSVSLGGRVTITCKASDHINNWLAWYQQKPGNAPRLLISGATSLETGVPSRFSGSGSGKDYTLSITSLQTEDVATYYCQQYWSIPLTFGAGTKLELKRTVAAPSVFIFPPSDEQLKSGTASVVCLLNNFYPREAKVQWKVDNALQSGNSQESVTEQDSKDSTYSLSSTLTLSKADYEKHKVYACEVTHQGLSSPVTKSFNRGEC
notes: DVD-Ig; outer AB071 (VEGF), inner AB072 (DLL4); HC long, LC short linker; also called DVD504H; DVD504L
- EC50 [4]: 530 pM

B9: DVD047 (bispecific antibody, human IgG1, kappa)
heavy: not shown
light: DIQMTQSPSSLSASVGDRVTITCSASQDISNYLNWYQQKPGKAPKVLIYFTSSLHSGVPSRFSGSGSGTDFTLTISSLQPEDFATYYCQQYSTVPWTFGQGTKVEIKRTVAAPDVVMTQSPLSLPVTPGEPASISCRSSQSLLHSNGFNYVDWYLQKPGQSPHLLIYFGSYRASGVPDRFSGSGSGTDFTLKISRVEAEDVGVYYCMQALQTPPWTFGQGTKVEIRRTVAAPSVFIFPPSDEQLKSGTASVVCLLNNFYPREAKVQWKVDNALQSGNSQESVTEQDSKDSTYSLSSTLTLSKADYEKHKVYACEVTHQGLSSPVTKSFNRGEC
- % inhibition of HUVEC proliferation at 0.67 nM [2]: -5%
- % inhibition of HUVEC proliferation at 6.7 nM [2]: 31%
- % inhibition of HUVEC proliferation at 67 nM [2]: 65%

B10: DVD506 (bispecific antibody, human IgG1, kappa)
heavy: not shown
light: DIQMTQSPSSLSASVGDRVTITCSASQDISNYLNWYQQKPGKAPKVLIYFTSSLHSGVPSRFSGSGSGTDFTLTISSLQPEDFATYYCQQYSTVPWTFGQGTKVEIKRTVAAPSVFIFPPDIQMTQSSSYLSVSLGGRVTITCKASDHINNWLAWYQQKPGNAPRLLISGATSLETGVPSRFSGSGSGKDYTLSITSLQTEDVATYYCQQYWSIPLTFGAGTKLELKRTVAAPSVFIFPPSDEQLKSGTASVVCLLNNFYPREAKVQWKVDNALQSGNSQESVTEQDSKDSTYSLSSTLTLSKADYEKHKVYACEVTHQGLSSPVTKSFNRGEC
notes: DVD-Ig; HC short, LC long linker; also called DVD506H; DVD506L
- EC50 [1]: 320 pM

B11: AB015 (antibody, human IgG1, kappa)
heavy: not shown
light: DIQMTQSPSSLSASVGDRVTITCRASQDVSTAVAWYQQKPGKAPKLLIYSASFLYSGVPSRFSGSGSGTDFTLTISSLQPEDFATTYYCQQSYTGTVTFGQGTKVEIKRTVAAPSVFIFPPSDEQLKSGTASVVCLLNNFYPREAKVQWKVDNALQSGNSQESVTEQDSKDSTYSLSSTLTLSKADYEKHKVYACEVTHQGLSSPVTKSFNRGEC
- Soluble Flt1 Assay, % of Neutralization @ 9.2 nM Ab [3]: 75.2%
- Soluble Flt1 Assay, % of Neutralization @ 27.7 nM Ab [3]: 78.7%
- Soluble Flt1 Assay, % of Neutralization @ 83.3 nM Ab [3]: 86.6%
